Test results as given in patent CN115246884A (SHANGHAI JUNSHI BIOSCIENCES CO LTD; JUNMENG BIOSCIENCES CO …, dated 2022).
Values belong to the molecule of their own block, whether it stands above or below them.

Legend:
人PD-L1重组蛋白 (human) = 人PD-L1重组蛋白 (human) (UniProt Q9NZQ7); assay: Biacore SPR, AHC capture of antibody, PD-L1 as analyte 0.78125-12.5 nM
[1] = molecular target: MAB-BA-231细胞表面人PD-L1 (human) (UniProt Q9NZQ7); assay: FACS on cells carrying human PD-L1
生物素化的PD-L1抗原 = 生物素化的PD-L1抗原 (UniProt Q9NZQ7); assay: competition ELISA, biotinylated PD-L1 on streptavidin, competitor PD-1 mFc 2.0 μg/mL; ratio = IC50 of chimeric antibody / IC50 of humanised antibody x 100%
His标签人PD-L1抗原 (human) = His标签人PD-L1抗原 (human) (UniProt Q9NZQ7); assay: ELISA, His-tagged human PD-L1 coated at 2.0 μg/mL; ratio = EC50 of chimeric antibody C1 (chC1) / EC50 of humanised antibody x 100%
MAB-BA-231细胞表面人PD-L1 = molecular target: T1, MAB-BA-231细胞表面人PD-L1 (human, UniProt Q9NZQ7 19-290); assay: FACS on MAB-BA-231 cells carrying human PD-L1
T1 construct: whole, on cells; also called 人PD-L1高表达细胞株(MBA-MA-231)
T1 sequence (Q9NZQ7 19-290): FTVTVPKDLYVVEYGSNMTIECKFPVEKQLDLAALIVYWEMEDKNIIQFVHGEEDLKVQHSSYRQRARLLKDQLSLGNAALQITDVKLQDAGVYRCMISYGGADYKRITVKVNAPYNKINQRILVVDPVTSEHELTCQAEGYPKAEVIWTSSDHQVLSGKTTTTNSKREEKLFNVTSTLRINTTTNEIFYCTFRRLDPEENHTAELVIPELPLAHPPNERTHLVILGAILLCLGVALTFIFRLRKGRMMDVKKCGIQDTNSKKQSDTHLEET

人PD-L1重组蛋白 [2] = molecular target: T2, 人PD-L1重组蛋白 (human, UniProt Q9NZQ7 19-238); assay: Biacore SPR, AHC capture of antibody, PD-L1 as analyte 0.78125-12.5 nM
T2 construct: also called 重组人PD-L1; 液相中游离PD-L1
T2 sequence (Q9NZQ7 19-238 limits assumed): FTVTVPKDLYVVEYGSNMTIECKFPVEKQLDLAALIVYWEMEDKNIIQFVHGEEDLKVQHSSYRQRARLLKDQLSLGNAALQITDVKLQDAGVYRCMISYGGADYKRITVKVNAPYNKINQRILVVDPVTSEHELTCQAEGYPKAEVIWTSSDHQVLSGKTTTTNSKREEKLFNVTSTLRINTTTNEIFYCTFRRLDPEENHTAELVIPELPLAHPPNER

CTLA4重组蛋白 = molecular target: T3, CTLA4重组蛋白 (UniProt P16410 36-161, limits assumed); assay: ELISA on recombinant proteins
T3 sequence (looked up): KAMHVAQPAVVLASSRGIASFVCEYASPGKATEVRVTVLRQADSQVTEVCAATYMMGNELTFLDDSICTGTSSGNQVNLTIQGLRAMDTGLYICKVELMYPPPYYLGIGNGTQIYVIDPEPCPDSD

PD-1重组蛋白 = molecular target: T4, PD-1重组蛋白 (UniProt Q15116 25-167, limits assumed); assay: ELISA on recombinant proteins
T4 construct: also called 受体PD-1
T4 sequence (Q15116 25-167 limits assumed): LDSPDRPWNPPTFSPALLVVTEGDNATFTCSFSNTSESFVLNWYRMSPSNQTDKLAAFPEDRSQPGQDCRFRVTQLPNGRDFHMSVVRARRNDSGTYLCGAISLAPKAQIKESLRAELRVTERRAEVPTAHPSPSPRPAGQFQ

CD28重组蛋白 = CD28重组蛋白 (UniProt P10747 19-152, limits assumed); assay: ELISA on recombinant proteins
Sequence of CD28重组蛋白 (P10747 19-152 limits assumed): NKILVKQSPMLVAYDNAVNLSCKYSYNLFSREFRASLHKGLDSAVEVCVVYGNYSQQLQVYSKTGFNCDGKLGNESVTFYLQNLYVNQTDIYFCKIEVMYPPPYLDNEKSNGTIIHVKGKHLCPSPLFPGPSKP

B7H3重组蛋白 = molecular target: T5, B7H3重组蛋白 (UniProt Q5ZPR3 29-461, limits assumed); assay: ELISA on recombinant proteins
T5 sequence (looked up): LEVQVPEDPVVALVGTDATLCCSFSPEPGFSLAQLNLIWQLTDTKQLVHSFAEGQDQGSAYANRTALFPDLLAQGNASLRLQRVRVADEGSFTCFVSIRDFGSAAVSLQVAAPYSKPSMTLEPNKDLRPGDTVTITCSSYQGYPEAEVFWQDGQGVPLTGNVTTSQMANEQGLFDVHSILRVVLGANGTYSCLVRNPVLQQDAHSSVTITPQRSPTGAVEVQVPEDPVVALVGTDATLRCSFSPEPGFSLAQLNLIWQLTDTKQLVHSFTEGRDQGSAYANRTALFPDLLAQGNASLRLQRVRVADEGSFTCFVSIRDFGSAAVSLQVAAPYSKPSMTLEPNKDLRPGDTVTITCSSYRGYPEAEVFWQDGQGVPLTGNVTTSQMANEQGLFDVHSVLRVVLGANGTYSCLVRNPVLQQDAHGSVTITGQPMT

B7H4重组蛋白 = molecular target: T6, B7H4重组蛋白 (UniProt Q7Z7D3 29-258, limits assumed); assay: ELISA on recombinant proteins
T6 sequence (looked up): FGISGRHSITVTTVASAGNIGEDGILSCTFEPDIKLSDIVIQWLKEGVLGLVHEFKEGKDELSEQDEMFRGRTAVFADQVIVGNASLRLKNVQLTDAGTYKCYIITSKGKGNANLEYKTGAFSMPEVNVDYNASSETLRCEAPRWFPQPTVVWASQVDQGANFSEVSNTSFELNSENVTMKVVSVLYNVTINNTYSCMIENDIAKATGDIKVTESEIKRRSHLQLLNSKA

ICOS重组蛋白 = molecular target: T7, ICOS重组蛋白 (UniProt Q9Y6W8 21-140, limits assumed); assay: ELISA on recombinant proteins
T7 sequence (looked up): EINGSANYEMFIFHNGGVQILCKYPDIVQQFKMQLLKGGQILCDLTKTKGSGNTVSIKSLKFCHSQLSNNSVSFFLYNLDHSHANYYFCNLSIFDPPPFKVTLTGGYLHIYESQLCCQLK

人PD-L1重组蛋白 [3] = molecular target: T2, 人PD-L1重组蛋白; assay: ELISA, inhibition of recombinant human PD-L1 binding to PD-1

B1: 人源化抗PD-L1单域抗体C1-hu1 (Fc fusion, not shown: a dimerising Fc or GST)
heavy: EVQLLESGGGLVQPGGSLRLSCAASGAAPCMAWFRQAPGKGLEGVSASVRGGLSPYYADVKGRFTISHDIPKNTMYLQMNSLRAEDTAVYYCAARATFYRCEGDASSYTYWGQGTLVTVSS
相对竞争抑制活性，% (生物素化的PD-L1抗原): 53.4%
相对结合活性，% (His标签人PD-L1抗原 (human)): 45.5%

B2: 人源化抗PD-L1单域抗体C1-hu2 (Fc fusion, not shown: a dimerising Fc or GST)
heavy: EVQLLESGGGLVQPGGSLRLSCAASGAAPCMAWFRQAPGKGLEGVSASVRGGLSPYYADVKGRFTISHDIPKNTLYLQMNSLRAEDTAVYYCAARATFYRCEGDASSYTYWGQGTLVTVSS
相对竞争抑制活性，% (生物素化的PD-L1抗原): 73.3%
相对结合活性，% (His标签人PD-L1抗原 (human)): 56.5%

B3: 人源化抗PD-L1单域抗体C1-hu5 (Fc fusion, not shown: a dimerising Fc or GST)
heavy: EVQLVESGGGLVQPGGSLRLSCAASGAAPCMAWFRQAPGKGLEGVSASVRGGLSPYYADVKGRFTISHDIPKNTMYLQMNSLRAEDTAVYYCAARATFYRCEGDASSYTYWGQGTLVTVSS
相对竞争抑制活性，% (生物素化的PD-L1抗原): 61.7%
相对结合活性，% (His标签人PD-L1抗原 (human)): 62.5%

B4: 人源化抗PD-L1单域抗体C1-hu11 (Fc fusion, not shown: a dimerising Fc or GST)
heavy: EVQLVESGGGLVQPGGSLRLSCAASGAAPCMAWFRQAPGKGREGVAASVRGGLSPYYADVKGRFTISHDIPKNTMYLQMNSLRAEDTAVYYCAARATFYRCEGDASSYTYWGQGTLVTVSS
相对竞争抑制活性，% (生物素化的PD-L1抗原): 89.1%
相对结合活性，% (His标签人PD-L1抗原 (human)): 81.3%

B5: 人源化抗PD-L1单域抗体C1-hu15 (Fc fusion, not shown: a dimerising Fc or GST)
heavy: EVQLVESGGGLVQPGGSLRLSCAASGAAPCMAWFRQAPGKEREGVAASVRGGLSPYYADVKGRFTISHDNSKNTMYLQMNSLRAEDTAVYYCAARATFYRCEGDASSYTYWGQGTLVTVSS
相对竞争抑制活性，% (生物素化的PD-L1抗原): 68.1%

The remaining lines, values ahead:

Ka (人PD-L1重组蛋白 (human)): 2.47e+09 M⁻¹
Kd (人PD-L1重组蛋白 (human)): 0.405 nM
EC50 [1]: 8.8 ng/mL
Molecule: 对照抗体KN035 (Envafolimab) (Fc fusion)

相对竞争抑制活性，% (生物素化的PD-L1抗原): 107%
相对结合活性，% (His标签人PD-L1抗原 (human)): 76.6%
B6: 人源化抗PD-L1单域抗体C1-hu16 (Fc fusion, not shown: a dimerising Fc or GST)
heavy: EVQLVESGGGLVQPGGSLRLSCAASGAAPCMAWFRQAPGKEREGVAASVRGGLSPYYADVKGRFTISHDIPKNTMYLQMNSLRAEDTAVYYCAARATFYRCEGDASSYTYWGQGTLVTVSS

EC50 (MAB-BA-231细胞表面人PD-L1): 8.1 ng/mL
Ka (人PD-L1重组蛋白 [2]): 3.16e+09 M⁻¹
Kd (人PD-L1重组蛋白 [2]): 0.317 nM
koff (人PD-L1重组蛋白 [2]): 0.000462 s⁻¹
kon (人PD-L1重组蛋白 [2]): 1.46e+06 M⁻¹ s⁻¹
binding result (CTLA4重组蛋白): no binding
binding result (PD-1重组蛋白): no binding
binding result (CD28重组蛋白): no binding
binding result (B7H3重组蛋白): no binding
binding result (B7H4重组蛋白): no binding
binding result (ICOS重组蛋白): no binding
IC50 (人PD-L1重组蛋白 [3]): 590 ng/mL
B7: 单域嵌合抗体(VHH-hFc)chC1 (Fc fusion)
heavy: QVQLQESGGGSVQTGGSLRLSCAASGAAPCMAWFRQAPGKEREGVAASVRGGLSPYYADSVKGRFTISHDIPKNTMYLQMNSLQPDDTALYYCAARATFYRCEGDASSYTYWGQGTQVTVSS
notes: VHH of C1 cloned upstream of the human IgG1 Fc gene and expressed in 293F cells; also called 嵌合抗体chC1; 嵌合抗体C1; not shown: Fc segment of the human IgG1 heavy chain constant region
